B1: wild-type ARE[-186] TARP promoter oligo (dsDNA)
DNA 1: GCAAGGTGAGGTCAGTTCTTAAA
DNA 2: TTTAAGAACTGACCTCACCTTGC
B2: mutated ARE[-186] oligo (dsDNA)
DNA 1: GCAAGGTGTGGTCAACTATTAAA
DNA 2: TTTAATAGTTGACCACACCTTGC

Columns and labels:
[1] = target: T1, Androgen receptor (AR), full-length (Homo sapiens, UniProt P10275 P10275:1-920); test: EMSA; 10 nM R1881, 30 mM KCl, 2 mM MgCl2, pH 7.5, poly(dI-dC); abolished by 100-fold unlabeled wild-type competitor; conditions: tags: none stated; cDNA from pSVAR0 in pBluescript II SK+, T7/wheat germ extract (Promega); chain copies: 2; label: 32P 5' end
Excerpt: (§1) Double-stranded oligonucleotides constituting either the wild-type ARE or a mutated version thereof at −186, relative to the TARP transcription initiation site, were 5′end labeled with […] using T4 polynucleotide kinase (Amersham Bioscience, Piscataway, N.J.). The wild-type oligonucleotide sequence was […] and includes the ARE[−186] sequence of the TARP promoter. The corresponding oligonucleotide sequence with the mutated version of the ARE[−186] was […]. Full-length human AR cDNA was subcloned from PSVAR0 (Brinkmann et al., J. Steroid Biochem., 34: 307-310, 1989) to pBluescript II SK+ (Stratagene). In vitro-translated human AR was produced by transcription-coupled translation by using T7 RNA polymerase and wheat germ extract (Promega). Translated AR was incubated with either wild-type ARE[−186] probe or mutated ARE[−186] probe in a buffer containing 20 mM HEPES (pH 7.5), 30 mM KCl, 2 mM MgCl₂, 1 mM EDTA, 1 mM dithioerythritol, 1 mM phenylmethylsulfonyl fluoride, 10 nM R1881, 15% glycerol, 1 μg poly(dI-dC)poly(dI-dC) and 1 μg BSA. Samples were resolved by electrophoresis on 5% TBE/polyacrylamide gels. The gels were dried and subjected to autoradiography.

[2] = target: T1, Androgen receptor (AR), full-length; test: EMSA; 10 nM R1881, 30 mM KCl, 2 mM MgCl2, pH 7.5, poly(dI-dC); conditions: tags: none stated; cDNA from pSVAR0 in pBluescript II SK+, T7/wheat germ extract (Promega); chain copies: 2; label: 32P 5' end
Excerpt: as §1

T1 sequence (P10275 whole entry, one chain of several): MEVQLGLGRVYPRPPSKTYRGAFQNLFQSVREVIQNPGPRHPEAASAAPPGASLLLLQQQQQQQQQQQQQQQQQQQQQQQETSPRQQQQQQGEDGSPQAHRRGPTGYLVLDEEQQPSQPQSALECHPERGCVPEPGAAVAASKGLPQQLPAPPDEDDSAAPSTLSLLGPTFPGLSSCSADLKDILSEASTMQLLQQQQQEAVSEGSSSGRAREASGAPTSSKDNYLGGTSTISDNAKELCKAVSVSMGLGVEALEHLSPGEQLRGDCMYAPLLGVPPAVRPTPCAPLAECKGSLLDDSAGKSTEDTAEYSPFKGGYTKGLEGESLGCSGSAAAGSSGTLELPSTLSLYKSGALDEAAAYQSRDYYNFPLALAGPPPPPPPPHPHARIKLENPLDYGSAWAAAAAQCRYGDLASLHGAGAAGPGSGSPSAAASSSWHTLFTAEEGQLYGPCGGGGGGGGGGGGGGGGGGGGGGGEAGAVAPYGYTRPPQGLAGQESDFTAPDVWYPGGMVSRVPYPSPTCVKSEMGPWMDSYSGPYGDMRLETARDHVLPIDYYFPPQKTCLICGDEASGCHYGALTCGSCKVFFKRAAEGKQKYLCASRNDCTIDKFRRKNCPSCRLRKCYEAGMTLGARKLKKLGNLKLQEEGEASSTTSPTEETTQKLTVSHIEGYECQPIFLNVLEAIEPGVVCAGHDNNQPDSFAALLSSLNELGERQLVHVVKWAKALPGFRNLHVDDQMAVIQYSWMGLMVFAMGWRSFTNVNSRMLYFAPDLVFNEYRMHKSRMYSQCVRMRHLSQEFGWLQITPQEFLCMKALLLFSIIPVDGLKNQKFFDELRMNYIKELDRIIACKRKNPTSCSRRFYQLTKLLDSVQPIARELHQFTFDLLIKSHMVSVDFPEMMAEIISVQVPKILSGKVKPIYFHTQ

Row | Binder | binding result [1] | binding result [2]
1 | B1 | binds | 
2 | B2 |  | no binding

— US20070032439, “Tarp promoter and uses thereof” (published 2007)
